{"source": "paper PMC3246890", "about": "(The Journal of Cell Biology, 2011)", "molecular_target": "the molecule itself", "experiment": "bead aggregation assay", "data": [{"protein": "NcadEC-Fc (secreted ectodomain of zebrafish N-cadherin fused to the Fc region of human IgG) (Fc fusion, UniProt Q90275 147-711, looked up) DWVIPPVNVLENSRKQFPEELVKIQSDKDKSNTLRYSVTGPGADQNPTGLFIIDPISGLLSVTKPLDREHIPNFHLRAHAVDINGNQMENPIDIIINVIDMNDNRPEFTHQIWNGTVDEGAKPGTFVMTVTSQDKDDPNTANGMLRYKILSQTPESPSSNMFTINNKTGKIITVAAGLDREKVPQYTLIIQATDMEGNPTYGLSNTATAVIRLLDVNDNAPEFTRETFHGEVPENRVNVIVTNLTVTDKDEPGTPAWNAVYRIISGDPTGRFSIPTDPVTNEGLVTVVKPVDFEMNRSFMLTVVADNEVPLASGIHRTRQSTATVSIRVIDVNESPNFDPNPKQIKLEEGLPQWSMLTTFTAHDPDRYMQQTISYSKLYDPANWLEIDPNNGRISTIAVLDRESPYVKNNLYNATFMASDNGVPRASGTGTLQIYLLDINDNAPRVFPQEAEVCERPEPNAINITAVDGDLNPNAGPYAFELPNRPSDIRRNWTLTRISGDHAQLSLKISYLESGIYELPISITDSGNLPMSNTTYLRIKVCQCDHHGDCVDMERIMAAGLGTGA", "values": [{"measurement": "binding result", "value": "binds"}]}]}
